Sequences and labels used below:
B1: TPR t1 (parent)
chain: GACCAAUCUGCCCUCAGAGCUCGAGAACAUCUUCGGAUGCAGAGGAGGCAGGCUUCGGUGGCGCGAUAGCGCCAACGUCCUCAACCUCCAAUGCAUCCCACCACAUGAUGAUGCCUGAAGAGCCUUGGUUUUUUG

The variants in this data set derive from B1. The data set is described as follows: polymerase ribozyme fitness, log enrichment relative to wild type (log ratio); higher = more active; in vitro selection for triplet polymerase activity. The gist of the method: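 To select mutant libraries of each subunit of a heterodimeric triplet polymerase ribozyme, built by PCR and transcribed, each was annealed with a biotinylated primer, partner subunit and triplets, then incubated frozen at −7 °C. Extended constructs were gel-excised, captured on streptavidin beads and amplified by RT-PCR, in one round carried out in triplicate. Illumina sequencing of input and output libraries kept genotypes with ≥10 input reads and ≥1 read per output. Fitness is the base-2 logarithm of genotype enrichment relative to wild-type enrichment, from inverse-variance-weighted replicate averages.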
On to C40U A41C G48U C56U G58C, for which the “polymerase ribozyme fitness (log ratio)” value is -1.43.

Regarding A41U G57A G77A, the “polymerase ribozyme fitness (log ratio)” value was -1.68.

As to A41U C56A C72U U92G, the “polymerase ribozyme fitness (log ratio)” value is -1.3.

For the variant C40U C49G U59A, the “polymerase ribozyme fitness (log ratio)” value is -1.73.

For the variant A41U C89U C123A, the “polymerase ribozyme fitness (log ratio)” value is -1.59.

As for A41U A84U C88A, the “polymerase ribozyme fitness (log ratio)” value is -3.83.

For C40U G52U C88A, the “polymerase ribozyme fitness (log ratio)” value is -1.07.

With G39U U78C G120A, the “polymerase ribozyme fitness (log ratio)” value amounted to 0.169.

In the case of C40U A43C G93C C115A, the “polymerase ribozyme fitness (log ratio)” value was -2.74.

For C40A A46U C79G C104U, the “polymerase ribozyme fitness (log ratio)” value was -6.75.

Consider C40A C104U G110A C124U, for which the “polymerase ribozyme fitness (log ratio)” value was -2.31.

Consider G42A U78G U87C C114U, for which the “polymerase ribozyme fitness (log ratio)” value was -2.18.

For A41U C56U U78G, the “polymerase ribozyme fitness (log ratio)” value is -1.47.

Consider C40G G113A, for which the “polymerase ribozyme fitness (log ratio)” value was -0.856.

In the case of C40G G127C, the “polymerase ribozyme fitness (log ratio)” value was -1.55.

As to C40U C98A, the “polymerase ribozyme fitness (log ratio)” value is -5.

For the variant C40G C104U G113C G122A, the “polymerase ribozyme fitness (log ratio)” value was -3.43.

Turning to A41C A46G, the “polymerase ribozyme fitness (log ratio)” value is -1.13.

On to C40G C114A, for which the “polymerase ribozyme fitness (log ratio)” value is -2.35.

Regarding A41G A111C, the “polymerase ribozyme fitness (log ratio)” value is -0.47.

For G42A G45U C82U C89U A90U A118G, the “polymerase ribozyme fitness (log ratio)” value is -1.67.

Take C40A A43U C70U C86U G93U C97G G135C: the “polymerase ribozyme fitness (log ratio)” value is -6.34.

Turning to G42A C64U C115A A119U, the “polymerase ribozyme fitness (log ratio)” value is -3.76.

For A41U C64U U87C U106C C123A, the “polymerase ribozyme fitness (log ratio)” value was -1.38.

For the variant C40A C64U, the “polymerase ribozyme fitness (log ratio)” value was -2.19.

C40G G122U: the “polymerase ribozyme fitness (log ratio)” value is -0.991.

As for A41C G51C, the “polymerase ribozyme fitness (log ratio)” value is -6.13.

G42A U78A U87C C114U: the “polymerase ribozyme fitness (log ratio)” value is -2.27.

As to C40G C80U G122U, the “polymerase ribozyme fitness (log ratio)” value was -3.37.

With A41U U96G, the “polymerase ribozyme fitness (log ratio)” value was -2.51.

On to A41C A46C C72G C97U U133A, for which the “polymerase ribozyme fitness (log ratio)” value is -3.71.

For C40U C88A, the “polymerase ribozyme fitness (log ratio)” value was -0.911.

For C40A G60A G113U G122C, the “polymerase ribozyme fitness (log ratio)” value is -4.23.

Turning to C40U G52A G60U A91U U109A, the “polymerase ribozyme fitness (log ratio)” value is -6.64.

Turning to C40U G113A C114G, the “polymerase ribozyme fitness (log ratio)” value was -2.13.

With C40G C56U A100U C101G, the “polymerase ribozyme fitness (log ratio)” value is -2.81.

Take A41G C102U: the “polymerase ribozyme fitness (log ratio)” value was -3.18.

In the case of C40U G135U, the “polymerase ribozyme fitness (log ratio)” value is -1.59.

With C40G C62A, the “polymerase ribozyme fitness (log ratio)” value was -1.9.

Regarding A41U G110U U125A, the “polymerase ribozyme fitness (log ratio)” value is -4.14.

For A41C C72G, the “polymerase ribozyme fitness (log ratio)” value was -1.5.

As to C40G G44C C73U U125G, the “polymerase ribozyme fitness (log ratio)” value was -2.93.

For the variant C40G G63U C80G C123U, the “polymerase ribozyme fitness (log ratio)” value is -6.43.

With C40A G60A C85G, the “polymerase ribozyme fitness (log ratio)” value is -2.93.

In the case of C40A C102A G113U C124A, the “polymerase ribozyme fitness (log ratio)” value is -6.46.

Take C40U G61U: the “polymerase ribozyme fitness (log ratio)” value is -0.267.

With A41C C89G, the “polymerase ribozyme fitness (log ratio)” value is -3.37.

For the variant A41C C89U, the “polymerase ribozyme fitness (log ratio)” value is -0.432.

Regarding A41U G61A C102A U133G, the “polymerase ribozyme fitness (log ratio)” value was -3.96.

In the case of C40G C56U, the “polymerase ribozyme fitness (log ratio)” value was -1.79.

With C40G A111G, the “polymerase ribozyme fitness (log ratio)” value is -0.323.

With C40G A111C, the “polymerase ribozyme fitness (log ratio)” value was -0.485.

With A41C C49A C72U, the “polymerase ribozyme fitness (log ratio)” value was -1.51.

Consider A41U G57U, for which the “polymerase ribozyme fitness (log ratio)” value was -1.23.

Take A41C G44U U87C: the “polymerase ribozyme fitness (log ratio)” value was -1.33.

As for A41C G42C G63U G127C, the “polymerase ribozyme fitness (log ratio)” value was -4.81.

Consider C40A U78C U92A C115U, for which the “polymerase ribozyme fitness (log ratio)” value is -4.02.

With G42A G63C U133G, the “polymerase ribozyme fitness (log ratio)” value was -3.43.

With C40U A74G G77U C123U, the “polymerase ribozyme fitness (log ratio)” value was determined as 1.22.

With A41C G63C G77U A91G U96G A108G U112G, the “polymerase ribozyme fitness (log ratio)” value is -6.24.

On to C40U G51U C53U G61U G113U, for which the “polymerase ribozyme fitness (log ratio)” value is -6.53.

With C40A C89G C94A, the “polymerase ribozyme fitness (log ratio)” value was -4.16.

A41G G71C U116G: the “polymerase ribozyme fitness (log ratio)” value was -3.99.

Turning to A41G A68G C82U, the “polymerase ribozyme fitness (log ratio)” value is -5.28.

Turning to C40G G48U, the “polymerase ribozyme fitness (log ratio)” value is -1.55.

As to C40G G48A, the “polymerase ribozyme fitness (log ratio)” value was -1.87.

With C40A G47A, the “polymerase ribozyme fitness (log ratio)” value is -3.03.

With C40G G47U G93U U129C U133G, the “polymerase ribozyme fitness (log ratio)” value was -2.76.

Take G42A A50U C101U: the “polymerase ribozyme fitness (log ratio)” value was -4.32.

Take A41C G117U C123A C124G: the “polymerase ribozyme fitness (log ratio)” value was -3.97.

In the case of G42A G69U, the “polymerase ribozyme fitness (log ratio)” value was -0.125.

With C40U C97U U106A C115A, the “polymerase ribozyme fitness (log ratio)” value was -1.86.

Take C40G C56A U106C: the “polymerase ribozyme fitness (log ratio)” value was -1.47.

On to G42A A50U, for which the “polymerase ribozyme fitness (log ratio)” value is -4.57.

Regarding G42A C85U, the “polymerase ribozyme fitness (log ratio)” value is -2.41.

With G42A A46U G48A G63A A118U, the “polymerase ribozyme fitness (log ratio)” value is -3.82.

A41G A46U C123U: the “polymerase ribozyme fitness (log ratio)” value was -2.51.

Take G42A A95C: the “polymerase ribozyme fitness (log ratio)” value is -1.94.

As to C40U G63U, the “polymerase ribozyme fitness (log ratio)” value was -1.68.

Consider C40U G63A, for which the “polymerase ribozyme fitness (log ratio)” value was -1.95.

For the variant C40A U78G C88G, the “polymerase ribozyme fitness (log ratio)” value is -4.1.

Regarding C40U C64U A90C, the “polymerase ribozyme fitness (log ratio)” value is -1.97.

A41C G48A G60U: the “polymerase ribozyme fitness (log ratio)” value is -1.76.

Regarding A41C G135U, the “polymerase ribozyme fitness (log ratio)” value is -1.68.

The record behind these values is the RNAGym collection of RNA variant scans (doi:10.1073/pnas.2313332121).
